# Experimental data taken from US20250034594A1, “RNA-GUIDED GENOME RECOMBINEERING AT KILOBASE SCALE” (THE BOARD OF TRUSTEES OF THE LELAND STANFORD JUNIOR …, priority 2021, published 2025).
# B1: SSAP_139: SEQ ID NO: 308; Butyrivibrio sp. FCS006 (protein, listed as Butyrivibrio sp.)
# chain: PYLFGGQMKEQEIKNQLAAKAVETTNPKLSKNMNIADLIKAIEPEIKKALPTVITPERFTRIALSALNTTPKLAECSQMSFLAALMNAAQLGLEVNSPLGQAYLIPYNNKGKLECQFQIGYKGMLGLAYRNPEIQTIQAQVVYENDDFKYELGLDSKLYHKPSLSDRGKVRCYYALYKLRNGGYGFEVMSRRDVEEYAKRYSKVTDSLYSPWANNFDSMAKKTVIKQLLKYAPLRTDLEKAMSMDESIKTRVSVDMSEVENEETFDAEVEV
# B2: SSAP_200: SEQ ID NO: 369; Streptomyces (multispecies) (protein, listed as Streptomyces sp.)
# chain: SQISNALATRDQGPAAQIEQYRDEYAALVPSHVNADQWVRLAVGAVRGDEKLMEAAQNDIGLFLREMKTAARLGLEPGTEQFYLTPRKSKPHGGRKVIKGIVGYQGIVELIYRAGAASTVIVEAVRENDTFRYVPGRDDRPVHEIDWFANDRGPLVGVYAYAVMKDGAVSKVVVLNRSRVMEFKAKSDSKHSEYSPWNTNEEAMWLKSAVRQLAKWVPTSAEYRRDQLLAHTETADSVVASVSTAPLPPQPSALDDADPDDDGPIDAELVD
# B3: SSAP_116: SEQ ID NO: 285; Lachnoclostridium sp. An14 (protein, listed as Lachnoclostridium sp.)
# chain: TDVKQELERKVGKQDSTAVRLTKNMSIPDMIKALEPEIRRALPAVLTPERFLRMALSAVNNTPKLAECTPMSFIAAMMNAAQLGLEPNTPLGQAYLIPYKNKNQLECQFQIGYKGIIDLAYRTGQMQMIQAHAVHEFDDFEYEYGLNPKLIHRPGDGNRGEITYFYGLFKLVNGGFGFEVMNREAMEAFAQQYSQSYGSQYSPWVKNFEDMAKKTVIKKALKYGPVKAEFQKAISMDETIKTEIAVDMTEVQNEESE
# B4: SSAP_195: SEQ ID NO: 364; Isoptericola dokdonensis (protein, listed as Isoptericola dokdonensis)
# chain: TQDLATAIADQQPAQRRTAFDLVESMRGELHKALPEHASIDNFLRLALTELKMNPQLGNCSGESLLGALMTAARVGLEVGGPLGQFYLTPRRLKRDGWAVVPIVGYRGLITLARRAGVGQVNAVVVHEGDTFREGASSERGFFFDWEPAVERGKPVGALAAARLAGGDVQHRYLSLAEVHERRDRGGFKDGSNSPWATDYDAMVRKTALRALVPLLPQSTALSFAVQADEQVQRYDAGDIDIPALDETDTEDTK
# B5: SSAP_127: SEQ ID NO: 296; Solibacillus sp. R5-41 (protein, listed as Solibacillus sp.)
# chain: ATSNELKKQAQGQVTAKPTTPEGSLNALLKKMGPEIQRALPKHMDADRIARIALTAVRTTPKLLECDQLSFVAALMQSAQLGVEPNTGLGQAYLIPYGGKVQFQLGYKGLIDLAVRSGQYKAIYAHEVYADDEFSFAYGLHKDLVHVPSANPSGDPIGYYAVYHLKNGGYDFVYWTRERIDIHSKAFSQAVQKGWTSPWKTNYDAMAKKTVLKEVLKYAPKSIEMQKVVEADETIKNEVAPDMSNVIDVTDYSILEDPQDVTDAQ
# Tested on: gene editing with dCas9
# Assay: Screen of 322 new SSAP proteins, gene editing activity with dCas9 (Table 5)
# Type: cell-based
# Parameters: dCas9 with SSAP activity: scale not given here
# Conditions: not given
# Procedure, shortened: (§1)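 Synthetic SSAP candidates, identified computationally, were tested in editing screens using both Cas9 and dCas9.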
row,Molecule,dCas9 with SSAP activity
1,B1,−6.481
2,B2,−6.514
3,B3,−6.481
4,B4,−6.406
5,B5,−6.524

# Same assay, conditions: normalized
row,Molecule,dCas9 with SSAP activity (normalized)
1,B2,−1.107
2,B4,−0.956
3,B5,−1.210

# Tested on: gene editing with Cas9 and dCas9
# Assay: Screen of 322 new SSAP proteins, activity across all experiments (Cas9 and dCas9, Table 5)
# Type: cell-based
# Parameters: scale not given here
# Conditions: not given
# Procedure, shortened: as §1
row,Molecule,Activity across all experiments
1,B1,−6.481
2,B2,−4.491
3,B3,−3.394
4,B4,−4.084
5,B5,−3.048

# Tested on: gene editing with Cas9
# Assay: Screen of 322 new SSAP proteins, gene editing activity with Cas9 (Table 5)
# Type: cell-based
# Parameters: Cas9 with SSAP activity: scale not given here
# Conditions: not given
# Procedure, shortened: as §1
row,Molecule,Cas9 with SSAP activity
1,B1,−6.481
2,B2,−2.468
3,B3,−0.307
4,B4,−1.761
5,B5,0.427

# Same assay, conditions: normalized
row,Molecule,Cas9 with SSAP activity (normalized)
1,B2,−0.973
2,B3,−0.056
3,B4,−1.896
4,B5,0.447
